Measurements taken from the RNAGym collection of RNA variant scans (doi:10.7554/elife.80360).

B1: HDV Ribozyme (parent)
chain: GGCCGGCAUGGUCCCAGCCUCCUCGCUGGCGCCGGCUGGGCAACAUUCCGAGGGGACCGUCCCCUCGGUAAUGGCGAAUGGGACCCA

Variants of: B1
Test: self-cleavage, relative activity (ratio to wild type); higher = more cleavage; co-transcriptional

Row | Variant | self-cleavage
1 | GGCCGGCAUGGUCCCAGCCUCCUCGCUGGCGCCCGGUGGGCAACAUUCCGAGGGGACCGUCCCCUCGGUAAUGGCGAAUGGGACCCA | 0.095
2 | GGCCGGCAUGGUCCCAGCCUCCUCGCUGGCGCCCGCUGGGCAACAUUCCGAGGGGACCGUUCCCUCGGUAAUGGCGAAUGGGACCCA | 0.154
3 | GGCCGGCAUGGUCCCAGCCUCCUCGCUGGCGCCUGCUGGGCAACAUUCCGAGGGGGCCGUCCCCUCGGUAAUGGCGAAUGGGACCCA | 0.288
4 | GGCCGGCAUGGUCCCAGCCUCCUCGCUGGCGCCUGCUGGGCAACAUUCCGAGGGGACCGUCCCCUCGGUAAUGGCGUAUGGGACCCA | 0.163
5 | GGCCGGCAUGGUCCCAGCCUCCUCGCUGGCGCCCGCUGGGCAACAUUCCGAGGCGACCGUCCCCUCGGUAAUGGCGAAUGGGACCCA | 0.295
6 | GGCCGGCAUGGUCCCAGCCUCCUCGCUGGCGCCCGCUGGGCAACAUUCCCAGGGGACCGUCCCCUCGGUAAUGGCGAAUGGGACCCA | 0.288
7 | GGCCGGCAUGGUCCCAGCCUCCUCGCUGGCGCCUGCUGGGCAACAUUCCGAGGGGACUGUCCCCUCGGUAAUGGCGAAUGGGACCCA | 0.153
8 | GGCCGGCAUGGUCCCAGCCUCCUCGCUGGCGCCCGCUGGGCAACAUUCCGAGGGGACCGUCCCCUCGGUAAUGGCUAAUGGGACCCA | 0.358
9 | GGCCGGCAUGGUCCCAGCCUCCUCGCUGGCGCCCGCUGGGCAACAUUCCGAGGGGACCGUCCCCUCGGUAAUGGCCAAUGGGACCCA | 0.332
10 | GGCCGGCAUGGUCCCAGCCUCCUCGCUGGCGCCUGCUGGGCAACAUUCCGAGAGGACCGUCCCCUCGGUAAUGGCGAAUGGGACCCA | 0.189
11 | GGCCGGCAUGGUCCCAGCCUCCUCGCUGGCGCCCGCUGGGCAACAUUCCGAGGGGACCGUCCCCUCGGUAAUGGCGAAUGGGACCAA | 0.13
12 | GGCCGGCAUGGUCCCAGCCUCCUCGCUGGCGCCUGCUGGGCAACAUUCCGAGGGGACCGUCCCCUCGGUAAUGGCGAAUGGGACACA | 0.164
13 | GGCCGGCAUGGUCCCAGCCUCCUCGCUGGCGCCUGCUGGGCAACAUUCCGAGGGGACCGUCCCCUCGGUAAUGGCGAAUGGGACGCA | 0.128
14 | GGCCGGCAUGGUCCCAGCCUCCUCGCUGGCGCCCGCUGAGCAACAUUCCGAGGGGACCGUCCCCUCGGUAAUGGCGAAUGGGACCCA | 0.0536
15 | GGCCGGCAUGGUCCCAGCCUCCUCGCUGGCGCCCGCUGCGCAACAUUCCGAGGGGACCGUCCCCUCGGUAAUGGCGAAUGGGACCCA | 0.0554
16 | GGCCGGCAUGGUCCCAGCCUCCUCGCUGGCGCCCGCUGGGCAACAUUCCGAGGGGACCAUCCCCUCGGUAAUGGCGAAUGGGACCCA | 0.143
17 | GGCCGGCAUGGUCCCAGCCUCCUCGCUGGCGCCCGCUGGGCAACAUUCCGAGGGGACCGUCCCAUCGGUAAUGGCGAAUGGGACCCA | 0.0739
18 | GGCCGGCAUGGUCCCAGCCUCCUCGCUGGCGCCUGCUGGGCAACAUUCCGAGGGGACCGUCCCCUCGGUACUGGCGAAUGGGACCCA | 0.161
19 | GGCCGGCAUGGUCCCAGCCUCCUCGCUGGCGCCCGCUGGGCAACAUUCCGAGCGGACCGUCCCCUCGGUAAUGGCGAAUGGGACCCA | 0.0898
20 | GGCCGGCAUGGUCCCAGCCUCCUCGCUGGCGCCCGCUGGGCAACAUUCCGAGGGGACUGUCCCCUCGGUAAUGGCGAAUGGGACCCA | 0.181
21 | GGCCGGCAUGGUCCCAGCCUCCUCGCUGGCGCCCGCUGGGCAACAUUCCGAGGGGACCGUCCCCUCGGUAAUGGCGAAUGGGUCCCA | 0.0755
22 | GGCCGGCAUGGUCCCAGCCUCCUCGCUGGCGCCCGCUGGGCAACUUUCCGAGGGGACCGUCCCCUCGGUAAUGGCGAAUGGGACCCA | 0.0378

Row | Variant | self-cleavage
23 | GGCCGGCAUGGUCCCAGCCUCCUCGCUGGCGCCUGCUGGGCAACAUUCCGAGGGGACCGUCCCCUCGGUAAUGGCGACUGGGACCCA | 0.0369
24 | GGCCGGCAUGGUCCCAGCCUCCUCGCUGGCGCCUGCUGGGCAACAUUCCGAGGGGACCGUCCCCUCGGUAAUGGCGAGUGGGACCCA | 0.111
25 | GGCCGGCAUGGUCCCAGCCUCCUCGCUGGCGCCCGCUGGGCAACAUUCCGAGGGGACCGUCCCCUCGGUAAUGGCGAAUGCGACCCA | 0.115
26 | GGCCGGCAUGGUCCCAGCCUCCUCGCUGGCGCCUGCUGGGCAACAUUCCGAGGGGACCGUCCCCUCGGUAAUGGCGAAUGGGCCCCA | 0.133
27 | GGCCGGCAUGGUCCCAGCCUCCUCGCUGGCGCCUGCUGGGCAACAUUCCGAGGGGACCGUCCCCUCGGUAAUGGCGAAUGGGUCCCA | 0.173
28 | GGCCGGCAUGGUCCCAGCCUCCUCGCUGGCGCCUGCUGGGCAACAUUCCGAGGGGACCGUCUCCUCGGUAAUGGCGAAUGGGACCCA | 0.229
29 | GGCCGGCAUGGUCCCAGCCUCCUCGCUGGCGCCUGCUGGGCAACAUUCCGAGGGGACCGUCACCUCGGUAAUGGCGAAUGGGACCCA | 0.0831
30 | GGCCGGCAUGGUCCCAGCCUCCUCGCUGGCGCCCGCUGGGCAACAUUCCGAGGGGACCGUCCCCUCGUUAAUGGCGAAUGGGACCCA | 0.199
31 | GGCCGGCAUGGUCCCAGCCUCCUCGCUGGCGCCCGCUGGGCAACAUUCCGAGGGGACCGUCCCCUCGGUAAUGGCGAUUGGGACCCA | 0.0475
32 | GGCCGGCAUGGUCCCAGCCUCCUCGCUGGCGCCCGCUGGGCAACAUUCCGAGGGGACCGUCCCCUCGGUAUUGGCGAAUGGGACCCA | 0.095
33 | GGCCGGCAUGGUCCCAGCCUCCUCGCUGGCGCCCGCUGGGCAACAUUCCGAGGGGAUCGUCCCCUCGGUAAUGGCGAAUGGGACCCA | 0.188
34 | GGCCGGCAUGGUCCCAGCCUCCUCGCUGGCGCCUGCUGGGCAACAUUCCGAGGGGACCGUCCCCUCGGUAAUGGCGAAUGGGACCCA | 0.19
35 | GGCCGGCAUGGUCCCAGCCUCCUCGCUGGCGCCCGCUGGGCAACAUUCCGAGGGGACCGUCCCCUCGGUAAUUGCGAAUGGGACCCA | 0.0627
36 | GGCCGGCAUGGUCCCAGCCUCCUCGCUGGCGCCUGCUGGGCAACAUUCCGAGGGGACCGUCCCCUCGGUAAUGGCGAAUGGGAGCCA | 0.161
37 | GGCCGGCAUGGUCCCAGCCUCCUCGCUGGCGCCCGCUGGGCAACAUUCCGAGGGUACCGUCCCCUCGGUAAUGGCGAAUGGGACCCA | 0.113
38 | GGCCGGCAUGGUCCCAGCCUCCUCGCUGGCGCCCGCUGGGCAACAUUCCGAGGGAACCGUCCCCUCGGUAAUGGCGAAUGGGACCCA | 0.147
39 | GGCCGGCAUGGUCCCAGCCUCCUCGCUGGCGCCUGCUGGGCAACAUUCAGAGGGGACCGUCCCCUCGGUAAUGGCGAAUGGGACCCA | 0.151
40 | GGCCGGCAUGGUCCCAGCCUCCUCGCUGGCGCCUGCUCGGCAACAUUCCGAGGGGACCGUCCCCUCGGUAAUGGCGAAUGGGACCCA | 0.194
41 | GGCCGGCAUGGUCCCAGCCUCCUCGCUGGCGCCUGCUAGGCAACAUUCCGAGGGGACCGUCCCCUCGGUAAUGGCGAAUGGGACCCA | 0.0702
42 | GGCCGGCAUGGUCCCAGCCUCCUCGCUGGCGCCUGCUUGGCAACAUUCCGAGGGGACCGUCCCCUCGGUAAUGGCGAAUGGGACCCA | 0.248
43 | GGCCGGCAUGGUCCCAGCCUCCUCGCUGGCGCCCGCUGGGCAACAUUCCGAGGGGACCGUCCCCUCGGUCAUGGCGAAUGGGACCCA | 0.123
44 | GGCCGGCAUGGUCCCAGCCUCCUCGCUGGCGCCCGCUGGGCAACAUUCCGAGGGGACCGUCCCCUCUGUAAUGGCGAAUGGGACCCA | 0.166

Row | Variant | self-cleavage
45 | GGCCGGCAUGGUCCCAGCCUCCUCGCUGGCGCCCGCUGGGCAACAUUCCGAGGGGACCGUCCCCUCCGUAAUGGCGAAUGGGACCCA | 0.123
46 | GGCCGGCAUGGUCCCAGCCUCCUCGCUGGCGCCCGCUGGGCAACAUUCCGAGGGGACCGUCCCCUCAGUAAUGGCGAAUGGGACCCA | 0.211
47 | GGCCGGCAUGGUCCCAGCCUCCUCGCUGGCGCCUGCUGGGCAACAUUCCGUGGGGACCGUCCCCUCGGUAAUGGCGAAUGGGACCCA | 0.169
48 | GGCCGGCAUGGUCCCAGCCUCCUCGCUGGCGCCUGCUGGGCAACAUUCCGAGGGGACCGUCCGCUCGGUAAUGGCGAAUGGGACCCA | 0.0475
49 | GGCCGGCAUGGUCCCAGCCUCCUCGCUGGCGCCUGCUGGGCAACAUUCCGAGGGGAACGUCCCCUCGGUAAUGGCGAAUGGGACCCA | 0.114
50 | GGCCGGCAUGGUCCCAGCCUCCUCGCUGGCGCCCGCUGGGCAAAAUUCCGAGGGGACCGUCCCCUCGGUAAUGGCGAAUGGGACCCA | 0.0831
51 | GGCCGGCAUGGUCCCAGCCUCCUCGCUGGCGCCCGCUGGGCAACAUUACGAGGGGACCGUCCCCUCGGUAAUGGCGAAUGGGACCCA | 0.161
52 | GGCCGGCAUGGUCCCAGCCUCCUCGCUGGCGCCCGCUGGGCAACAUUCCGAGGGGACCGUCCCCUCGGUAAUGGCGAAUCGGACCCA | 0.23
53 | GGCCGGCAUGGUCCCAGCCUCCUCGCUGGCGCCCGCUGGGCAACAUUCCGAGGGGACCGUCCCCUCGGUAAUGGCGAAUAGGACCCA | 0.138
54 | GGCCGGCAUGGUCCCAGCCUCCUCGCUGGCGCCCGCUGGGCAACAAUCCGAGGGGACCGUCCCCUCGGUAAUGGCGAAUGGGACCCA | 0.158
55 | GGCCGGCAUGGUCCCAGCCUCCUCGCUGGCGCCUGCUGGGCAACAUUCCGAGGGGACCGUCCCCUUGGUAAUGGCGAAUGGGACCCA | 0.166
56 | GGCCGGCAUGGUCCCAGCCUCCUCGCUGGCGCCUGCUGGGCAACAUUCCGAGGUGACCGUCCCCUCGGUAAUGGCGAAUGGGACCCA | 0.0923
57 | GGCCGGCAUGGUCCCAGCCUCCUCGCUGGCGCCCGCUGGGCAACAUUCCGAGGGGACCGUCCCCGCGGUAAUGGCGAAUGGGACCCA | 0.208
58 | GGCCGGCAUGGUCCCAGCCUCCUCGCUGGCGCCCGCUGGGCAACAUUCCGAGGGGACCGUCCCCACGGUAAUGGCGAAUGGGACCCA | 0.138
59 | GGCCGGCAUGGUCCCAGCCUCCUCGCUGGCGCCCGCUGGGCAACAUACCGAGGGGACCGUCCCCUCGGUAAUGGCGAAUGGGACCCA | 0.161
60 | GGCCGGCAUGGUCCCAGCCUCCUCGCUGGCGCCCGCUGGGCAACAUGCCGAGGGGACCGUCCCCUCGGUAAUGGCGAAUGGGACCCA | 0.133
61 | GGCCGGCAUGGUCCCAGCCUCCUCGCUGGCGCCCGCUGGACAACAUUCCGAGGGGACCGUCCCCUCGGUAAUGGCGAAUGGGACCCA | 0.354
62 | GGCCGGCAUGGUCCCAGCCUCCUCGCUGGCGCCCGCUGGCCAACAUUCCGAGGGGACCGUCCCCUCGGUAAUGGCGAAUGGGACCCA | 0.113
63 | GGCCGGCAUGGUCCCAGCCUCCUCGCUGGCGCCCGCUGGGCAACAUUCCGAGGGGACCGUCCCCUGGGUAAUGGCGAAUGGGACCCA | 0.169
64 | GGCCGGCAUGGUCCCAGCCUCCUCGCUGGCGCCCGCUGGGCAACAUUCCGAGGGGACCGUCCCCUCGGUAAUGGCGAAAGGGACCCA | 0.104
